From patent publication US20170088585A1 come the findings set out here.

This assay deals with Aβ40 (UniProt P05067). The assay can be described thus: cell-based or functional assay.
Sequence of Aβ40 (P05067 672-711 limits assumed): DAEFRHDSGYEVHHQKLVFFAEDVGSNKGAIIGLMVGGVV

Regarding “[lJwHsK]: Cyclo-D-leucine-L-noreucine-D-tryptophan-L-histidine-D-serine-L-lysine (peptide)”, the Inhibition at 1:1 (ThT assay, Aβ:cyclic peptide) worked out at 69% and the Inhibition at 1:1/3 (ThT assay, Aβ:cyclic peptide) came to 37%.
For the substance “[lZwHsK]: Cyclo-D-leucine-L-2-aminooctanoic acid-D-tryptophan-L-histidine-D-serine-L-lysine (peptide)”, the Inhibition at 1:1 (ThT assay, Aβ:cyclic peptide) came out at 55% and the Inhibition at 1:1/3 (ThT assay, Aβ:cyclic peptide) came out at 42%.

A word on the Inhibition: it is how much of the control response was suppressed. High values mean a response far below the control, low ones a response near the control.
